Experimental data published in FireProtDB.

B1: Superoxide dismutase [Mn], mitochondrial, P04179 (parent)
chain: MLSRAVCGTSRQLAPVLGYLGSRQKHSLPDLPYDYGALEPHINAQIMQLHHSKHHAAYVNNLNVTEEKYQEALAKGDVTAQIALQPALKFNGGGHINHSIFWTNLSPNGGGEPKGELLEAIKRDFGSFDKFKEKLTAASVGVQGSGWGWLGFNKERGHLQIAACPNQDPLQGTTGLIPLLGIDVWEHAYYLQYKNVRPDYLKAIWNVINWENVTERYMACKK
B2: Serine proteinase inhibitor IA-1, Q7M4T6 (parent)
chain: SAGKFIVIFKNDVSEDKIRETKDEVIAEGGTITNEYNMPGMKGFAGELTPQSLTKFQGLQGDLIDSIEEDGIVTTQ
B3: 3-isopropylmalate dehydrogenase, P05645 (parent)
chain: MKKRIALLPGDGIGPEVLESATDVLKSVAERFNHEFEFEYGLIGGAAIDEHHNPLPEETVAACKNADAILLGAVGGPKWDQNPSELRPEKGLLSIRKQLDLFANLRPVKVFESLSDASPLKKEYIDNVDFVIVRELTGGLYFGQPSKRYVNTEGEQEAVDTLFYKRTEIERVIREGFKMAAARKGKVTSVDKANVLESSRLWREVAEDVAQEFPDVKLEHMLVDNAAMQLIYAPNQFDVVVTENMFGDILSDEASMLTGSLGMLPSASLSSSGLHLFEPVHGSAPDIAGKGMANPFAAILSAAMLLRTSFGLEEEAKAVEDAVNKVLASGKRTRDLARSEEFSSTQAITEEVKAAIMSENTISNV
B4: Ribonuclease HI, P0A7Y4 (parent)
chain: MLKQVEIFTDGSCLGNPGPGGYGAILRYRGREKTFSAGYTRTTNNRMELMAAIVALEALKEHCEVILSTDSQYVRQGITQWIHNWKKRGWKTADKKPVKNVDLWQRLDAALGQHQIKWEWVKGHAGHPENERCDELARAAAMNPTLEDTGYQVEV

Variants of: B1
Conditions: Homo sapiens; pH 7.8; 70 °C; Thermal; DSC; Potassium phosphate 2 mM; reversible: yes; structure 1N0J; whole UniProt chain shown

In the case of I82T, the “ddG of mutation (higher = less stable)” value is reported as 2.7 kcal/mol.

Same assay, conditions: Homo sapiens; pH 7.8; Thermal; DSC; Potassium phosphate 2 mM; reversible: yes; structure 1N0J; whole UniProt chain shown

For I82T, the Tm was 56.4 °C.

With I82T the “change of melting temperature, mutant - wild type (higher = more stable)” value (from here on “change of melting temperature, mutant”) was -13.6 °C.

For I82T, the “unfolding enthalpy (calorimetric)” value was 64.9 kcal/mol.

Variants of: B2
Conditions: Pleurotus ostreatus; pH 7; Thermal; CD; sodium phosphate 50 mM; whole UniProt chain shown

Work on F56A yielded a Tm of 46 °C.

For F56A, the “change of melting temperature, mutant” value was -13 °C.

Variants of: B3
Conditions: Bacillus subtilis (strain 168); pH 7.6; Thermal; CD; Potassium phosphate 20 mM; reversible: yes; whole UniProt chain shown

Point of comparison: I95L T308I, Tm 66 °C. Against it:
- I95L M292I T308I — higher, 70 °C

Same assay, conditions: Bacillus subtilis (strain 168); pH 7.6; Thermal; CD; potassium phosphate 20 mM; reversible: No; whole UniProt chain shown

Point of comparison: M256V, “change of melting temperature, mutant” value 2.5 °C. Against it:
- M256F — lower, -12.5 °C
- M256I — lower, 0 °C
- M256L — lower, 0 °C
- M256A — higher, 7 °C

Variants of: B4
Conditions: Escherichia coli (strain K12); pH 3; 50.1 °C; Thermal; CD; glycine-HCl 10 mM; NaCl 0.1 M; reversible: yes; structure 2RN2; whole UniProt chain shown

Point of comparison: K95N, “ddG of mutation (higher = less stable)” value -0.88 kcal/mol. Against it:
- E119V R41C — higher, -0.09 kcal/mol
- E135K — higher, 1.1 kcal/mol
- E119V — higher, -0.09 kcal/mol
- Q80L K117R — higher, 0.03 kcal/mol
- Q76L — higher, -0.24 kcal/mol
- G23A — higher, -0.7 kcal/mol
- E119V K60R — higher, 0.06 kcal/mol
- A24V — higher, -0.73 kcal/mol
- R41C — higher, -0.12 kcal/mol

Same assay, conditions: Escherichia coli (strain K12); pH 3; Thermal; CD; glycine-HCl 10 mM; NaCl 0.1 M; reversible: yes; structure 2RN2; whole UniProt chain shown

Point of comparison: Q80L K117R, Tm 50 °C. Against it:
- E119V R41C — higher, 50.4 °C
- E135K — lower, 46.4 °C
- Q76L — higher, 50.9 °C
- G23A — higher, 52.4 °C
- E119V K60R — lower, 49.9 °C
- A24V — higher, 52.5 °C
- K95N — higher, 53 °C

Point of comparison: E119V K60R, “change of melting temperature, mutant” value -0.2 °C. Against it:
- E119V R41C — higher, 0.3 °C
- E135K — lower, -3.7 °C
- Q80L K117R — higher, -0.1 °C
- Q76L — higher, 0.8 °C
- G23A — higher, 2.3 °C
- A24V — higher, 2.4 °C
- K95N — higher, 2.9 °C

Point of comparison: E119V K60R, “unfolding enthalpy (van 't Hoff)” value 109 kcal/mol. Against it:
- E119V R41C — lower, 101 kcal/mol
- E135K — lower, 99 kcal/mol
- Q80L K117R — lower, 104 kcal/mol
- Q76L — higher, 110 kcal/mol
- G23A — lower, 99.3 kcal/mol
- A24V — the same, 109 kcal/mol
- K95N — the same, 109 kcal/mol

Same assay, conditions: Escherichia coli (strain K12); pH 5.5; Thermal; CD; Sodium acetate 20 mM; NaCl 0.1 M; reversible: yes; structure 2RN2; whole UniProt chain shown

Point of comparison: G23A, Tm 54.5 °C. Against it:
- E119V R41C — higher, 56.9 °C
- E135K — lower, 51.9 °C
- E119V — higher, 55.4 °C
- Q80L K117R — lower, 53.5 °C
- Q76L — lower, 53.8 °C
- E119V K60R — higher, 55 °C
- A24V — higher, 55.9 °C
- R41C — lower, 54.3 °C

Point of comparison: G23A, “change of melting temperature, mutant” value 1.8 °C. Against it:
- E119V R41C — higher, 4.2 °C
- E135K — lower, -0.8 °C
- E119V — higher, 2.7 °C
- Q80L K117R — lower, 0.8 °C
- Q76L — lower, 1.1 °C
- E119V K60R — higher, 2.3 °C
- A24V — higher, 3.2 °C
- R41C — lower, 1.6 °C

Point of comparison: E119V, “unfolding enthalpy (van 't Hoff)” value 94.3 kcal/mol. Against it:
- E119V R41C — higher, 107 kcal/mol
- E135K — lower, 89.9 kcal/mol
- Q80L K117R — lower, 83.1 kcal/mol
- Q76L — lower, 81.2 kcal/mol
- G23A — lower, 91.8 kcal/mol
- E119V K60R — higher, 98.6 kcal/mol
- A24V — higher, 101 kcal/mol
- R41C — higher, 102 kcal/mol

Same assay, conditions: Escherichia coli (strain K12); pH 5.5; 52.7 °C; Thermal; CD; Sodium acetate 20 mM; NaCl 0.1 M; reversible: yes; structure 2RN2; whole UniProt chain shown

Point of comparison: E119V K60R, “ddG of mutation (higher = less stable)” value -0.63 kcal/mol. Against it:
- E135K — higher, 0.22 kcal/mol
- E119V — lower, -0.74 kcal/mol
- R41C — higher, -0.44 kcal/mol
- K95N — lower, -0.88 kcal/mol

Same assay, conditions: Escherichia coli (strain K12); pH 3; 49.8 °C; Thermal; CD; glycine-HCl 10 mM; reversible: yes; structure 2RN2; whole UniProt chain shown

Point of comparison: G77A, “ddG of mutation (higher = less stable)” value 0.9 kcal/mol. Against it:
- K91R D94E — lower, 0.6 kcal/mol
- K95A — lower, -0.1 kcal/mol
- K95N — lower, -0.9 kcal/mol

Same assay, conditions: Escherichia coli (strain K12); pH 3; Thermal; CD; glycine-HCl 10 mM; reversible: yes; structure 2RN2; whole UniProt chain shown

Point of comparison: K95G, Tm 49.8 °C. Against it:
- G77A — lower, 46.9 °C
- K91R D94E — lower, 47.8 °C
- K91R — the same, 49.8 °C
- K95N — the same, 49.8 °C

Point of comparison: K95N, “change of melting temperature, mutant” value 2.9 °C. Against it:
- G77A — lower, -2.9 °C
- K91R D94E — lower, -2 °C
- K91R — lower, 0.5 °C
- K95G — higher, 5.7 °C

Point of comparison: K91R D94E, “unfolding enthalpy (van 't Hoff)” value 93.8 kcal/mol. Against it:
- K91R — higher, 119 kcal/mol
- K95G — higher, 102 kcal/mol
- K95N — higher, 109 kcal/mol

Same assay, conditions: Escherichia coli (strain K12); pH 5.5; Thermal; CD; glycine-HCl 10 mM; reversible: yes; structure 2RN2; whole UniProt chain shown

K91R D94E showed a Tm of 50.2 °C.

With K91R D94E the “change of melting temperature, mutant” value was -1.8 °C.

For K91R D94E, the “unfolding enthalpy (van 't Hoff)” value was 87.5 kcal/mol.

Same assay, conditions: Escherichia coli (strain K12); pH 3; Thermal; CD; Gly-HCl buffer 10 mM; NaCl 0.1 M; reversible: yes; structure 2RN2; whole UniProt chain shown

Point of comparison: V74A, “change of melting temperature, mutant” value -7.6 °C. Against it:
- V74L — higher, 3.7 °C
- V74I — higher, 2.4 °C

Point of comparison: V74L, “ddG of mutation (higher = less stable)” value -1.1 kcal/mol. Against it:
- V74A — higher, 2.2 kcal/mol
- V74I — higher, -0.7 kcal/mol

Same assay, conditions: Escherichia coli (strain K12); pH 5.5; Thermal; CD; sodium acetate 20 mM; NaCl 0.1 M; reversible: yes; structure 2RN2; whole UniProt chain shown

Point of comparison: V74L, “change of melting temperature, mutant” value 3.3 °C. Against it:
- V74A — lower, -12.7 °C
- V74I — lower, 2.1 °C

Point of comparison: V74I, “ddG of mutation (higher = less stable)” value -0.6 kcal/mol. Against it:
- V74A — higher, 3.4 kcal/mol
- V74L — lower, -0.9 kcal/mol

Same assay, conditions: Escherichia coli (strain K12); pH 5.5; 49.8 °C; Thermal; CD; Sodium acetate 20 mM; reversible: yes; structure 2RN2; whole UniProt chain shown

Point of comparison: K91R, “ddG of mutation (higher = less stable)” value 0 kcal/mol. Against it:
- K95A — lower, -0.1 kcal/mol
- K95G — lower, -1.9 kcal/mol
- K95N — lower, -0.9 kcal/mol

Same assay, conditions: Escherichia coli (strain K12); pH 5.5; Thermal; CD; Sodium acetate 20 mM; reversible: yes; structure 2RN2; whole UniProt chain shown

Point of comparison: K95G, Tm 52 °C. Against it:
- K91R — the same, 52 °C
- K95A — the same, 52 °C
- K95N — the same, 52 °C

Point of comparison: K95N, “change of melting temperature, mutant” value 3.2 °C. Against it:
- K91R — lower, 0.1 °C
- K95A — lower, 0.4 °C
- K95G — higher, 6.8 °C

Point of comparison: K91R, “unfolding enthalpy (van 't Hoff)” value 96.2 kcal/mol. Against it:
- K95A — higher, 96.4 kcal/mol
- K95G — lower, 90.4 kcal/mol
- K95N — lower, 90 kcal/mol
